Publication doi:10.1101/2024.06.24.600433, “Role of the antiparallel double-stranded filament form of FtsA in activating the Escherichia coli divisome” (bioRxiv, 2024)
Where a chain is given by its changes, count along the chain named. Names and notes keep the numbering of the source.

B1: FtsA^M71A with Q155C (natural protein, E. coli, UniProt P0ABH0 1-420, looked up)
chain: MIKATDRKLVVGLEIGTAKVAALVGEVLPDGMVNIIGVGSCPSRGMDKGGVNDLESVVKCVQRAIDQAELAADCQISSVYLALSGKHISCQNEIGMVPISEEEVTQEDVENVVHTAKSVRVRDEHRVLHVIPQEYAIDYQEGIKNPVGLSGVRMCAKVHLITCHNDMAKNIVKAVERCGLKVDQLIFAGLASSYSVLTEDERELGVCVVDIGGGTMDIAVYTGGALRHTKVIPYAGNVVTSDIAYAFGTPPSDAEAIKVRHGCALGSIVGKDESVEVPSVGGRPPRSLQRQTLAEVIEPRYTELLNLVNEEILQLQEKLRQQGVKHHLAAGIVLTGGAAQIEGLAACAQRVFHTQVRIGAPLNITGLTDYAQEPYYSTAVGLLHYGKESHLNGEAEVEKRVTASVGSWIKRLNSWLRKEF
notes: FtsA of E. coli with M71A and Q155C; M71A introduced into pWM7049 or pWM7239 by site-directed mutagenesis; I take them to be the Q155C and the R286W Q155C derivatives of pDSW210-FLAG-FtsA; source: E. coli, expressed from a plasmid, in cells (crosslinked in vivo)
B2: FLAG-FtsA^Q155C (natural protein, E. coli, UniProt P0ABH0 1-420, looked up)
chain: B1 chain with A71M
notes: FtsA of E. coli with Q155C, made by site-directed mutagenesis on pWM2785 (pDSW210-FLAG-FtsA); probably the whole FtsA reading frame, since it complements an ftsA null allele; also called pDSW210-FLAG-FtsA^Q155C; source: E. coli, expressed from pDSW210 with IPTG, in cells (crosslinked in vivo); not shown: FLAG, N-terminal, kept

Columns and labels:
[1] = biological target: the molecule itself; test: cross-linking; in vivo cysteine crosslinking of E. coli cells in cold PBS with 0.5 mM BMB or BMH for 10 min, quenched with 40 mM BME; SDS-PAGE and anti-FtsA immunoblot; dividing cells (ftsZ84(ts) 10 and 20 min after return to 30°C; ftsQ1ts, zipA1ts and ftsA^o strains at 30°C, ftsA^o strain also at 42°C; WM4952 at 37°C; WM4953 ftsL*)
[2] = biological target: the molecule itself; test: cross-linking; in vivo cysteine crosslinking, zipA1(ts) strain WM7149 shifted to the nonpermissive 42°C; anti-FtsA immunoblot
[3] = biological target: the molecule itself; test: cross-linking; in vivo cysteine crosslinking, ftsQ1(ts) strain WM7148 shifted to the nonpermissive 42°C; anti-FtsA immunoblot

| Protein | DS filament crosslinking at Q155C relative to WT FtsA [1] | fold decrease of the crosslinked band at 42°C against 30°C [2] | fold decrease of the crosslinked band at 42°C against 30°C [3] |
| --- | --- | --- | --- |
| B1 | ~35 % of WT levels | – | – |
| B2 | – | 7.5 fold | 3 fold |
